Among the data in article PMC4095729 are Kd, koff and kon values, retold here.

The target of this assay is biotinylated DAE10 peptide (Aβ1-10 conjugated to biotin at the carboxy-terminus). In words: SPR; BIAcore; biotinylated DAE10 peptide (Aβ1-10) immobilised on streptavidin coated chips at low density (4 to 7 RU); whole antibodies injected in triplicate at 100 nM, 30 μl/minute; apparent rate constants, bivalent model, KD corrected for active concentration of antibody.

By koff is commonly meant the rate constant with which the complex falls apart. By kon is commonly meant a measure of how fast the partners come together. Regarding Murine 3D6 (whole antibody, IgG2b), the Kd is 1.2 nM, the koff came to 0.000412 s⁻¹ and the kon turned out to be 361000 M⁻¹ s⁻¹.
On the same counts, the results for “Recombinant chimeric 3D6 (IgG1) (antibody)” are 1.8 nM, 0.000589 s⁻¹ and 343000 M⁻¹ s⁻¹.
